Patent publication US20240400675A1 (published 2024)
Changes are numbered by the printed parent chain. Like-named read-outs stand apart in the source and are kept apart here.

Assays:
Test in all cases: flow cytometry, HEK293E cells
[1] = target: T1, CLDN6 I143V isotype (UniProt P56747 1-220)
T1 chain: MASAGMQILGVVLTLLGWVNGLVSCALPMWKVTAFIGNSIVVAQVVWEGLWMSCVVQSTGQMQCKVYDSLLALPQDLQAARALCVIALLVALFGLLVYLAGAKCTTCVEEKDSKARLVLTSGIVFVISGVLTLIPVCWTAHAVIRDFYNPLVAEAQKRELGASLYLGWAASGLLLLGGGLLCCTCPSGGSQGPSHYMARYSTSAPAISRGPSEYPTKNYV

[2] = target: T2, human CLDN6 (UniProt P56747 1-220)
T2 chain: T1 chain with V143I

[3] = target: T3, human CLDN9 (UniProt O95484 1-217)
T3 chain: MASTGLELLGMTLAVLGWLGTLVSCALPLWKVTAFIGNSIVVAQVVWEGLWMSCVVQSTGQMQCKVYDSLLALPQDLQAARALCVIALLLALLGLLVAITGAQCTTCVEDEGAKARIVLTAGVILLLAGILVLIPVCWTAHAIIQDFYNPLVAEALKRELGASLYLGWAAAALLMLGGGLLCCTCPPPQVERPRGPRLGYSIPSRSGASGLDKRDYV

[4] = target: T2, human CLDN6
[5] = target: T4, mouse CLDN6 (mouse, UniProt Q9Z262 1-219)
T4 chain: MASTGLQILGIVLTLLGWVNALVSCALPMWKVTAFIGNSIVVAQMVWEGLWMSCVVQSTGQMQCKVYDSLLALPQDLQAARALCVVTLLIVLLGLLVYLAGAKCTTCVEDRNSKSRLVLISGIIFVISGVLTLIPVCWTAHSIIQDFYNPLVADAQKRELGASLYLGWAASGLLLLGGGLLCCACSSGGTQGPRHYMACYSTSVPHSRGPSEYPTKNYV

[6] = target: T5, cyno CLDN6
T5 chain: T1 chain with V143I, Q191R

[7] = target: T1, CLDN6 I143V isotype
[8] = target: T2, human CLDN6
[9] = target: T3, human CLDN9
[10] = target: T2, human CLDN6
[11] = target: T4, mouse CLDN6
[12] = target: T5, cyno CLDN6

B1: XENP34233 (C6-30_H1L1 x CD3 bsAb in the 2+1 Fab2-scFv-Fc format) (bispecific antibody)
heavy 1: QVQLVQSGAEVKKPGASVKVSCKTSGYTFTEYTMHWVRQAPGQSLEWMGGIDPNNGNTHYNQKFQGRVTITVDKSASTAYMELSSLRSEDTAVYYCARIYYFGRLYFDFWGAGTLVTVSSASTKGPSVFPLAPSSKSTSGGTAALGCLVKDYFPEPVTVSWNSGALTSGVHTFPAVLQSSGLYSLSSVVTVPSSSLGTQTYICNVNHKPSDTKVDKKVEPKSCDKTHTCPPCPAPPVAGPSVFLFPPKPKDTLMISRTPEVTCVVVDVKHEDPEVKFNWYVDGVEVHNAKTKPREEEYNSTYRVVSVLTVLHQDWLNGKEYKCKVSNKALPAPIEKTISKAKGQPREPQVYTLPPSREEMTKNQVSLTCDVSGFYPSDIAVEWESDGQPENNYKTTPPVLDSDGSFFLYSKLTVDKSRWEQGDVFSCSVMHEALHNHYTQKSLSLSPGK
heavy 2: QVQLVQSGAEVKKPGASVKVSCKTSGYTFTEYTMHWVRQAPGQSLEWMGGIDPNNGNTHYNQKFQGRVTITVDKSASTAYMELSSLRSEDTAVYYCARIYYFGRLYFDFWGAGTLVTVSSASTKGPSVFPLAPSSKSTSGGTAALGCLVKDYFPEPVTVSWNSGALTSGVHTFPAVLQSSGLYSLSSVVTVPSSSLGTQTYICNVNHKPSNTKVDKKVEPKSCGGGGSGGGGSQAVVTQEPSLTVSPGGTVTLTCGSSTGAVTTSNYANWVQQKPGKSPRGLIGGTNKRAPGVPARFSGSLLGGKAALTISGAQPEDEADYYCALWYSNHWVFGGGTKLTVLGKPGSGKPGSGKPGSGKPGSEVQLVESGGGLVQPGGSLRLSCAASGFTFSTYAMNWVRQAPGKGLEWVGRIRSKYNNYATYYADSVKGRFTISRDDSKNTLYLQMNSLRAEDTAVYYCVRHGNFGDSYVSWFAYWGQGTLVTVSSGGGGSGGGGSKTHTCPPCPAPPVAGPSVFLFPPKPKDTLMISRTPEVTCVVVDVKHEDPEVKFNWYVDGVEVHNAKTKPREEQYNSTYRVVSVLTVLHQDWLNGKEYKCKVSNKALPAPIEKTISKAKGQPREPQVYTLPPSREQMTKNQVKLTCLVKGFYPSDIAVEWESNGQPENNYKTTPPVLDSDGSFFLYSKLTVDKSRWQQGNVFSCSVMHEALHNHYTQKSLSLSPGK
light: not shown
[1]
  EC50: 0.329 µg/mL
[2]
  EC50: 0.359 µg/mL
[3]
  EC50: 6.73 µg/mL
[4]
  EC50: 0.224 µg/mL
[5]
  EC50: 0.664 µg/mL
[6]
  EC50: 0.316 µg/mL

B2: XENP34229 (C6-30_H1L1 x CD3 bsAb in the 1+1 Fab-scFv-Fc format) (bispecific antibody)
heavy: B1 heavy 1
scFv-Fc: QAVVTQEPSLTVSPGGTVTLTCGSSTGAVTTSNYANWVQQKPGKSPRGLIGGTNKRAPGVPARFSGSLLGGKAALTISGAQPEDEADYYCALWYSNHWVFGGGTKLTVLGKPGSGKPGSGKPGSGKPGSEVQLVESGGGLVQPGGSLRLSCAASGFTFSTYAMNWVRQAPGKGLEWVGRIRSKYNNYATYYADSVKGRFTISRDDSKNTLYLQMNSLRAEDTAVYYCVRHGNFGDSYVSWFAYWGQGTLVTVSSEPKSSDKTHTCPPCPAPPVAGPSVFLFPPKPKDTLMISRTPEVTCVVVDVKHEDPEVKFNWYVDGVEVHNAKTKPREEQYNSTYRVVSVLTVLHQDWLNGKEYKCKVSNKALPAPIEKTISKAKGQPREPQVYTLPPSREQMTKNQVKLTCLVKGFYPSDIAVEWESNGQPENNYKTTPPVLDSDGSFFLYSKLTVDKSRWQQGNVFSCSVMHEALHNHYTQKSLSLSPGK
light: not shown
[1]
  EC50: 5.58 µg/mL
[2]
  EC50: 6.49 µg/mL
[3]
  EC50: 78.8 µg/mL
[4]
  EC50: 3.48 µg/mL
[5]
  EC50: 12 µg/mL
[6]
  EC50: 5.65 µg/mL

B3: XENP34637 (C6-30_H2L1 x CD3 bsAb in the 1+1 Fab-scFv-Fc format) (bispecific antibody)
heavy: EVQLVQSGAEVKKPGESLRISCKTSGYTFTEYTMHWVRQMPGKSLEWMGGIDPNNGNTHYNQKFQGHVTISVDKSISTAYLQWSSLKASDTAMYYCARIYYFGRLYFDFWGAGTLVTVSSASTKGPSVFPLAPSSKSTSGGTAALGCLVKDYFPEPVTVSWNSGALTSGVHTFPAVLQSSGLYSLSSVVTVPSSSLGTQTYICNVNHKPSDTKVDKKVEPKSCDKTHTCPPCPAPPVAGPSVFLFPPKPKDTLMISRTPEVTCVVVDVKHEDPEVKFNWYVDGVEVHNAKTKPREEEYNSTYRVVSVLTVLHQDWLNGKEYKCKVSNKALPAPIEKTISKAKGQPREPQVYTLPPSREEMTKNQVSLTCDVSGFYPSDIAVEWESDGQPENNYKTTPPVLDSDGSFFLYSKLTVDKSRWEQGDVFSCSVMHEALHNHYTQKSLSLSPGK
scFv-Fc: not shown
light: not shown
[7]
  EC50: 12.9 µg/mL
[8]
  EC50: 20.6 µg/mL
[9]
  EC50: 137 µg/mL
[10]
  EC50: 2.38 µg/mL
[11]
  EC50: 6.71 µg/mL
[12]
  EC50: 3.19 µg/mL

B4: XENP34638 (C6-30_H2L1 x CD3 bsAb in the 2+1 Fab2-scFv-Fc format) (bispecific antibody)
heavy 1: B3 heavy
heavy 2: EVQLVQSGAEVKKPGESLRISCKTSGYTFTEYTMHWVRQMPGKSLEWMGGIDPNNGNTHYNQKFQGHVTISVDKSISTAYLQWSSLKASDTAMYYCARIYYFGRLYFDFWGAGTLVTVSSASTKGPSVFPLAPSSKSTSGGTAALGCLVKDYFPEPVTVSWNSGALTSGVHTFPAVLQSSGLYSLSSVVTVPSSSLGTQTYICNVNHKPSNTKVDKKVEPKSCGGGGSGGGGSQAVVTQEPSLTVSPGGTVTLTCGSSTGAVTTSNYANWVQQKPGKSPRGLIGGTNKRAPGVPARFSGSLLGGKAALTISGAQPEDEADYYCALWYSNHWVFGGGTKLTVLGKPGSGKPGSGKPGSGKPGSEVQLVESGGGLVQPGGSLRLSCAASGFTFSTYAMNWVRQAPGKGLEWVGRIRSKYNNYATYYADSVKGRFTISRDDSKNTLYLQMNSLRAEDTAVYYCVRHGNFGDSYVSWFAYWGQGTLVTVSSGGGGSGGGGSKTHTCPPCPAPPVAGPSVFLFPPKPKDTLMISRTPEVTCVVVDVKHEDPEVKFNWYVDGVEVHNAKTKPREEQYNSTYRVVSVLTVLHQDWLNGKEYKCKVSNKALPAPIEKTISKAKGQPREPQVYTLPPSREQMTKNQVKLTCLVKGFYPSDIAVEWESNGQPENNYKTTPPVLDSDGSFFLYSKLTVDKSRWQQGNVFSCSVMHEALHNHYTQKSLSLSPGK
light: not shown
[7]
  EC50: 0.2 µg/mL
[8]
  EC50: 0.435 µg/mL
[9]
  EC50: 11.2 µg/mL
[10]
  EC50: 0.244 µg/mL
[11]
  EC50: 0.588 µg/mL
[12]
  EC50: 0.267 µg/mL
